Measurements reported in patent US10973880B2, “Compositions and methods for treating pulmonary hypertension” (Acceleron Pharma Inc., priority 2016, dated 2021).

What was measured:
[1] = molecular target: T1, activin B (Homo sapiens, UniProt P09529); assay: similar binding assay (Biacore); conditions: CHO-cell-expressed material
T1 sequence (P09529 293-407): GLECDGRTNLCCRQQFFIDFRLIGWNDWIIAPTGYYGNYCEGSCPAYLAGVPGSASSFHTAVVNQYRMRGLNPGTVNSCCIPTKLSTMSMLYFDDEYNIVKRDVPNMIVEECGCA

[2] = pharmacokinetic studies in rats; format: in vivo, rat; conditions: initial administration 30 mg/kg
Experimental: The ActRIIA-hFc was very stable in pharmacokinetic studies. Rats were dosed with 1 mg/kg, 3 mg/kg, or 10 mg/kg of ActRIIA-hFc protein, and plasma levels of the protein were measured at 24, 48, 72, 144 and 168 hours. In a separate study, rats were dosed at 1 mg/kg, 10 mg/kg, or 30 mg/kg.

[3] = pharmacokinetics in cynomolgus monkeys; format: in vivo, cynomolgus monkey; conditions: initial administration 10 mg/kg
[4] = molecular target: T2, BMP10 (Homo sapiens, UniProt O95393); assay: Biacore ligand affinity (Example 10); format: binding; conditions: Smad 1/5/8 ligand
T2 sequence (O95393 317-424): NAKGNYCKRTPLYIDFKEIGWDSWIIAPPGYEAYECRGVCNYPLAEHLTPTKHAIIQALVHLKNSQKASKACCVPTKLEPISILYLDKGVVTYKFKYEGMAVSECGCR
Experimental: (§1) The affinity of GDF traps and other ActRIIB-hFc proteins for several ligands was evaluated in vitro with a Biacore™ instrument. Kd values were obtained by steady-state affinity fit due to the very rapid association and dissociation of the complex, which prevented accurate determination of kon and koff.

[5] = molecular target: T3, BMP6 (Homo sapiens, UniProt P22004); assay: Biacore ligand affinity (Example 10); format: binding; conditions: Smad 1/5/8 ligand
T3 sequence (P22004 375-513): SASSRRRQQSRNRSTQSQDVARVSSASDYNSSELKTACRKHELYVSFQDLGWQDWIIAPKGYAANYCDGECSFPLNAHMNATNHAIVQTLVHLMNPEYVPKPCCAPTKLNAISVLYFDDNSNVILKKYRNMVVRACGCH
Experimental: as §1

[6] = molecular target: T4, GDF8 (Homo sapiens, UniProt O14793); assay: Biacore ligand affinity (Example 10); format: binding; conditions: Smad 2/3 signaling ligand
T4 sequence (O14793 267-375): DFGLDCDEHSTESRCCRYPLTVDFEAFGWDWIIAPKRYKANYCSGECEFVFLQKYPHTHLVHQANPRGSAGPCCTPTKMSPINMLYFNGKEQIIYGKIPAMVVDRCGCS
Experimental: as §1

[7] = test system: activin; conditions: see U.S. Pat. No. 7,842,663; cited from earlier work
[8] = molecular target: T5, GDF11 (Homo sapiens, UniProt O95390); conditions: see U.S. Pat. No. 7,842,663; cited from earlier work
T5 sequence (O95390 299-407): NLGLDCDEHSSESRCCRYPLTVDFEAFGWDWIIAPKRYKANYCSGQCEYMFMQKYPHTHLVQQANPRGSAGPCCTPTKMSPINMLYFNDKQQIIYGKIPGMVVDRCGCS

[9] = molecular target: T6, activin A (Homo sapiens, UniProt P08476); assay: A-204 reporter gene assay, pGL3(CAGA)12 luciferase; format: cell-based; conditions: Example 13
T6 sequence (P08476 311-426): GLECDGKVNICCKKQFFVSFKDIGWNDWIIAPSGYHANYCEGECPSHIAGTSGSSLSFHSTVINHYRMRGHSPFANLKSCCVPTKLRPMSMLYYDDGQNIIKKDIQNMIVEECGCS
Excerpt: An A-204 reporter gene assay was used to evaluate the effects of ActRIIB-Fc proteins and GDF traps on signaling by GDF-11 and activin A. Cell line: human rhabdomyosarcoma (derived from muscle). Reporter vector: pGL3(CAGA)12 (described in Dennler et al, 1998, EMBO 17: 3091-3100). The CAGA12 motif is present in TGF-beta responsive genes (e.g., PAI-1 gene), so this vector is of general use for factors signaling through SMAD2 and 3.
Day 1: Split A-204 cells into 48-well plate.
Day 2: A-204 cells transfected with 10 ug pGL3(CAGA)12 or pGL3(CAGA)12(10 ug)+pRLCMV (1 μg) and Fugene.
Day 3: Add factors (diluted into medium+0.1% BSA). Inhibitors need to be preincubated with factors for 1 hr before adding to cells. Six hrs later, cells were rinsed with PBS and lysed.
This is followed by a luciferase assay.
(§2) In addition, an A-204 Reporter Gene Assay was used to evaluate the effects of ALK4-Fc:ActRIIB-Fc heterodimer and ActRIIB-Fc:ActRIIB-Fc homodimer on signaling by activin A, activin B, GDF11, GDF8, BMP10, and BMP9. Cell line: Human Rhabdomyosarcoma (derived from muscle). Reporter vector: pGL3(CAGA)12 (as described in Dennler et al, 1998, EMBO 17: 3091-3100). The CAGA12 motif is present in TGFβ responsive genes (PAI-1 gene), so this vector is of general use for factors signaling through Smad2 and 3. An exemplary A-204 Reporter Gene Assay is outlined below. • Day 1: Split A-204 cells into 48-well plate. • Day 2: A-204 cells transfected with 10 ug pGL3(CAGA)12 or pGL3(CAGA)12(10 ug)+pRLCMV (1 ug) and Fugene. • Day 3: Add factors (diluted into medium+0.1% BSA). Inhibitors need to be pre-incubated with Factors for about one hr before adding to cells. About six hrs later, cells are rinsed with PBS and then lysed.
(§3) Following the above steps, a Luciferase assay was performed.

[10] = molecular target: T5, GDF11; assay: A-204 reporter gene assay, pGL3(CAGA)12 luciferase; format: cell-based; conditions: Example 13
Excerpt: (§4) Day 1: Split A-204 cells into 48-well plate. […]
as §2, §3

[11] = molecular target: T2, BMP10; assay: Biacore-based binding assay, receptor captured with anti-Fc antibody
Experimental: (§5) A Biacore™-based binding assay was used to compare ligand binding selectivity of the ALK4-Fc:ActRIIB-Fc heterodimeric complex described above with that of ActRIIB-Fc and ALK4-Fc homodimer complexes. The ALK4-Fc:ActRIIB-Fc heterodimer, ActRIIB-Fc homodimer, and ALK4-Fc homodimer were independently captured onto the system using an anti-Fc antibody. Ligands were injected and allowed to flow over the captured receptor protein. Results are summarized in the table below, in which ligand off-rates (kd) most indicative of effective ligand traps are denoted in bold font.

[12] = molecular target: T3, BMP6; assay: as above
Experimental: as §5

[13] = molecular target: T7, BMP9 (Homo sapiens, UniProt Q9UK05); assay: as above
T7 sequence (Q9UK05 320-429): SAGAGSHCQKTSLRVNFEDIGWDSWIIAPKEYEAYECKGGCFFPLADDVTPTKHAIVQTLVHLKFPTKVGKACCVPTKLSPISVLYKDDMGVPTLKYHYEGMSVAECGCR
Experimental: as §5

[14] = molecular target: T5, GDF11; assay: as above
Experimental: as §5

[15] = molecular target: T8, GDF3 (Homo sapiens, UniProt Q9NR23); assay: as above
T8 sequence (Q9NR23 251-364): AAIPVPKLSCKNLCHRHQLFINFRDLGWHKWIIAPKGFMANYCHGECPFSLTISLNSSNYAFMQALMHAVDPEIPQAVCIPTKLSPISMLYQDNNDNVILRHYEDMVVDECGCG
Experimental: as §5

[16] = molecular target: T4, GDF8; assay: as above
Experimental: as §5

[17] = molecular target: T6, activin A; assay: as above
Experimental: as §5

[18] = molecular target: T1, activin B; assay: as above
Experimental: as §5

[19] = molecular target: T4, GDF8; assay: A-204 reporter gene assay, pGL3(CAGA)12 luciferase; format: cell-based; parameters: host or cells: exogenous factor added to A-204 cells (human rhabdomyosarcoma); conditions: Example 13
Excerpt: as §4, §2, §3

[20] = molecular target: T1, activin B; assay: A-204 reporter gene assay, pGL3(CAGA)12 luciferase; format: cell-based; parameters: host or cells: exogenous factor added to A-204 cells (human rhabdomyosarcoma); conditions: Example 13
Excerpt: as §2, §3

## ActRIIA-hFc: extracellular domain of human ActRIIa fused to a human Fc domain with a minimal linker (SEQ ID NO: 32); homodimer
[1]
  affinity for activin B ligand compared with that reported for ActRIIa-hFc expressed in human 293 cells: higher affinity
[2]
  circulating levels of the drug after two weeks: 30 µg/mL
[3]
  circulating levels of the drug: 30 µg/mL

## ActRIIB(L79D 25-131)-hFc: GDF trap with truncated ActRIIB extracellular domain (residues 25-131, L79D) fused to human Fc (SEQ ID NO: 78)
[4]
  binding to BMP10: strong to intermediate binding
[5]
  binding to BMP6: strong to intermediate binding
[6]
  binding to GDF8: strong to intermediate binding

B1: ActRIIB(20-119)-Fc: ActRIIB-Fc fusion protein containing amino acids 20-119 of SEQ ID NO: 1 (protein)
chain: GRGEAETRECIYYNANWELERTNQSGLERCEGEQDKRLHCYASWRNSSGTIELVKKGCWLDDFNCYDRQECVATEENPQVYFCCCEGNFCNERFTHLPEA
modifications: Fc fusion, Fc no entry
[7]
  binding to activin relative to ActRIIB(20-134)-Fc: reduced binding
[8]
  binding to GDF11 relative to ActRIIB(20-134)-Fc: reduced binding

B2: ActRIIB-Fc homodimer: homodimer complex of ActRIIB-Fc fusion polypeptide (protein)
chain: GRGEAETRECIYYNANWELERTNQSGLERCEGEQDKRLHCYASWRNSSGTIELVKKGCWLDDFNCYDRQECVATEENPQVYFCCCEGNFCNERFTHLPEAGGPEVTYEPPPTAPT
modifications: left off: a dimerising Fc or GST
notes: homodimer complex of ActRIIB-Fc fusion polypeptide
[9]
  inhibition of activin A signaling: potent inhibitors
[10]
  inhibition of GDF11 signaling: potent inhibitors
[11]
  Kd: 0.011 nM
  ka, BMP10: 2.3e+07 M⁻¹ s⁻¹
  kd, BMP10: 0.00026 s⁻¹
[12]
  ka, BMP6: 3.2e+07 M⁻¹ s⁻¹
  kd, BMP6: 0.0068 s⁻¹
[13]
  Kd: 0.077 nM
  ka, BMP9: 1.4e+07 M⁻¹ s⁻¹
  kd, BMP9: 0.0011 s⁻¹
[14]
  ka, GDF11: 5e+07 M⁻¹ s⁻¹
  kd, GDF11: 0.00011 s⁻¹
[14]; † = very low signal
  Kd: 2 pM
[15]
  Kd: 1.5 nM
  ka, GDF3: 1.4e+06 M⁻¹ s⁻¹
  kd, GDF3: 0.0022 s⁻¹
[16]
  ka, GDF8: 830000 M⁻¹ s⁻¹
  kd, GDF8: 0.00023 s⁻¹
[16]; † = very low signal
  Kd: 0.28 nM
[17]
  ka, Activin A: 1.2e+07 M⁻¹ s⁻¹
  kd, Activin A: 0.00023 s⁻¹
[18]
  ka, Activin B: 5.1e+06 M⁻¹ s⁻¹
  kd, Activin B: 0.0001 s⁻¹
[19]
  inhibition of GDF8 signaling: potent inhibitors
[20]
  inhibition of activin B signaling: potent inhibitors
